Results on 1 substance are retold here after publication PMC7080818.

In assay [1] the target is 3xFLAG-HCMV-UL48, N-terminal catalytic domain of the HCMV large tegument protein (human cytomegalovirus (HCMV)) (UniProt P16785).
In assay [2] the target is 3xFLAG-KSHV-ORF64, N-terminal catalytic domain of the KSHV large tegument protein (Kaposi Sarcoma herpesvirus (KSHV)) (UniProt Q2HR64).
The target in assay [3] is 3xFLAG-BPLF1 (amino acid residues 1-235), N-terminal catalytic domain of the EBV large tegument protein (Epstein-Barr virus (EBV)) (UniProt P03186).
Sequence of UniProt P03186 (P03186 1-235): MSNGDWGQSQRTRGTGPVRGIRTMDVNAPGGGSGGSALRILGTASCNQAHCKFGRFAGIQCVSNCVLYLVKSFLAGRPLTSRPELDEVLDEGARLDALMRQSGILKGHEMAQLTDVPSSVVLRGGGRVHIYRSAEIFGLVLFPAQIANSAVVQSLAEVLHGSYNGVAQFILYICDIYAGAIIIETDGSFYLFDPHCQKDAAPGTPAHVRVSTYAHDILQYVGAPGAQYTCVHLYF

Bounds are passed on as bounds.

Sequence of UniProt Q2HR64 (Q2HR64 1-300): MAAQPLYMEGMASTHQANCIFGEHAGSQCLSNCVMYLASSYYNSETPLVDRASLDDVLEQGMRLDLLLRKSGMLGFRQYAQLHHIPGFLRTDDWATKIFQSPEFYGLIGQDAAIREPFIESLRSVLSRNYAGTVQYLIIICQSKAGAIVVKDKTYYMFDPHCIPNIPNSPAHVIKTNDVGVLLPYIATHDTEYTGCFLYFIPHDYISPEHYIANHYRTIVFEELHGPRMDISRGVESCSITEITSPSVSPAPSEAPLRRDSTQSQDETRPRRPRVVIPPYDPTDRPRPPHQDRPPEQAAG
Sequence of UniProt P16785 (P16785 1-300): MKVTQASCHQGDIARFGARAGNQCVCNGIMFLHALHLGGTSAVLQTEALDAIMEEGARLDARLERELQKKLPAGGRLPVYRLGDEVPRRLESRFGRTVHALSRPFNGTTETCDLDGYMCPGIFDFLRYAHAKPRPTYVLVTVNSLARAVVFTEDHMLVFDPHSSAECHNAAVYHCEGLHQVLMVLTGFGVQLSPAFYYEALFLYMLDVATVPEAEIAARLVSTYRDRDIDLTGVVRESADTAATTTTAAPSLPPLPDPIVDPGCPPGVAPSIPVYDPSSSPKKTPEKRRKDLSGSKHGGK

Consider “14-3-3 molecular scaffold (endogenous, detected with a pan 14-3-3 antibody) (from UniProt P63104 1-245) (natural protein)”, for which the mono-ubiquitination of co-transfected HA-TRIM25 (western blot, densitometry), percent mono-ubiquitinated TRIM25 in assay [1] and in assay [2] was more than 70% in each case. Besides, the inhibition of IRF3 nuclear translocation in RIG-I-2CARD positive HeLa cells in assay [3] was more than 50%.
